Measured values published in PMC8983666, “Structural and biochemical characterisation of the Providencia stuartii arginine decarboxylase shows distinct polymerisation and regulation” (Communications Biology, 2022).

Key:
[1] = molecular target: Providencia stuartii arginine decarboxylase Adc (Providencia stuartii); test: cryo-EM structure; isolated Adc decamer, about 0.25 mg/mL, 25 mM MES, 150 mM NaCl, 1 mM DTT, 0.1 mM PLP, pH 6.5; D5 symmetry
[2] = molecular target: Providencia stuartii arginine decarboxylase Adc (Providencia stuartii); test: mass photometry; Refeyn OneMP; 30 nM Adc at pH 5.0 and 20 nM Adc at pH 6.5; only the decamer and species below it analysed
[3] = system: N=C(N)NCCC[C@H](N)C(=O)O; test: purified protein; conditions: pH 5 (100 mM acetic acid-sodium acetate), 100 mM NaCl, 0.1 mM PLP, 10% glycerol, 20 °C, 10 nM Adc, decarboxylation to agmatine, parentheses = 2.5%-97.5% confidence interval

Substance	stoichiometry N [1]	stoichiometry N [2]	Km [3]	kcat [3]
Providencia stuartii arginine decarboxylase Adc (enzyme)	10	10	–	–
Providencia stuartii arginine decarboxylase (Adc) (Providencia stuartii)	–	–	0.331 (0.28, 0.38) mM	102 (97, 108) s^-1
